Target: Cdc37 (Cell division cycle protein 37) (human (endogenous in MDA-MB-453 and MDA-MB-231)) (UniProt Q16543)
Experiment: co-IP; membrane fractions of MDA-MB-453 and MDA-MB-231 cells immunoprecipitated with anti-Cdc37 (18 h, 4°C, protein G-Sepharose), Western blot with anti-HSP90, anti-HER2, anti-EGFR; cells cultured in control medium or with 200 µg/ml anti-Cdc37 or 200 µg/ml mAb 4C5 for 16 h; densitometry

Chain of UniProt Q16543 (Q16543 whole entry): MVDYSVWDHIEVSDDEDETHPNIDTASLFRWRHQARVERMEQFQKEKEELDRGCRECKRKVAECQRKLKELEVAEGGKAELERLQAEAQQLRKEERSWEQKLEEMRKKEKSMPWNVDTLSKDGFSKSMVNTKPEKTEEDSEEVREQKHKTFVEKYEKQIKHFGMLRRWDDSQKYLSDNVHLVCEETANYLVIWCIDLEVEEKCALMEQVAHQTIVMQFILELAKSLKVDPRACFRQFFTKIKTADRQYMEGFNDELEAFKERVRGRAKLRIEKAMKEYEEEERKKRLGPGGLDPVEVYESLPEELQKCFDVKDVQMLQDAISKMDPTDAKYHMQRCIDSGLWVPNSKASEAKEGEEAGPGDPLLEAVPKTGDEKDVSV

percent decrease of the co-precipitate with 200 µg/ml anti-Cdc37 in the medium (MDA-MB 231): 56% | percent decrease of the co-precipitate with 200 µg/ml anti-Cdc37 in the medium (MDA-MB 453): 33% | percent decrease of the co-precipitate with 200 µg/ml mAb 4C5 in the medium (MDA-MB 231): 88% | percent decrease of the co-precipitate with 200 µg/ml mAb 4C5 in the medium (MDA-MB 453): 60%
Substance: HSP90 (from UniProt P07900 1-732) (natural protein)

— PMC3422348
